From paper PMC10404244, “Control of motor landing and processivity by the CAP-Gly domain in the KIF13B tail” (Nature Communications, 2023) come the findings set out here.

Data set [1] concerns the molecule itself. The data set can be described thus: mass photometry; lower concentration(s) of the construct (KIF13B^Δtail: the lower of two; KIF13B^CG: low and intermediate), HP buffer pH 7.0, room temperature; monomer to dimer.
In data set [2] the target is T1, tyrosinated microtubules polymerized from recombinant human α1A/βIII tubulin (human, UniProt Q71U36 1-451; Q13509 1-450).
T1 construct: human alpha-tubulin isotype α1A, fully tyrosinated; human beta-tubulin isotype βIII; Plasmids (pFAST-Dual) were gifts from A. Roll-Mecak; also called recombinant human tubulin (fully tyrosinated); not shown: His tag (from the HisTrap purification)
T1 sequence (Q71U36 whole entry, chain 1 of 2): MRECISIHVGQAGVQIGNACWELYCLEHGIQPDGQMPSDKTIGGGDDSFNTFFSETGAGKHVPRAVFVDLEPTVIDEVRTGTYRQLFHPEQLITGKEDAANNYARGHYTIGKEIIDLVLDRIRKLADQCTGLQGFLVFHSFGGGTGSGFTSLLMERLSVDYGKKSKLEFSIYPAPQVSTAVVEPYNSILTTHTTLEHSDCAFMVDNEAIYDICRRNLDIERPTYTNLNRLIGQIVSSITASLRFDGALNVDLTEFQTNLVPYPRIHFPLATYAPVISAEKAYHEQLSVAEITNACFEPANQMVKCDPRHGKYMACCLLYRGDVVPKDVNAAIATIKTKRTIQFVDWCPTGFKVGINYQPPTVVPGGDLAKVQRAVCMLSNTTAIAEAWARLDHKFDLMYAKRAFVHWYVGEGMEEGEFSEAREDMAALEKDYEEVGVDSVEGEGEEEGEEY
T1 sequence (Q13509 whole entry, chain 2 of 2): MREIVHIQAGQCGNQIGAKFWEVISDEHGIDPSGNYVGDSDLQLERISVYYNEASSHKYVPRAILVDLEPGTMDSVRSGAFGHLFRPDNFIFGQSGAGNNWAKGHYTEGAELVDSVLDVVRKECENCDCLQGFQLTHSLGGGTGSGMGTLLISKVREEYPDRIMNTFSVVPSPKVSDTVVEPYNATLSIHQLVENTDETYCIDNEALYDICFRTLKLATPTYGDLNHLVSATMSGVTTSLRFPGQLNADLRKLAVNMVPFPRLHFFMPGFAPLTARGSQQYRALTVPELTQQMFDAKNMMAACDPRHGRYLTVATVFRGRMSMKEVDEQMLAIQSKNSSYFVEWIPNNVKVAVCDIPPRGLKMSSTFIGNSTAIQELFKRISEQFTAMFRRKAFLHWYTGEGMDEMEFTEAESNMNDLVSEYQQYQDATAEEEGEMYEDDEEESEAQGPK
The data set is described as follows: TIRF microscopy microtubule-binding assay (standard deviation map); differentially labelled tyrosinated and detyrosinated taxol microtubules held by biotin-streptavidin in the same chamber, sfGFP motors in solution, 2 mM ATP, HP assay buffer pH 7.0. The following applies: both partners purified.

Data set [3] concerns the molecule itself. The data set can be described thus: two-colour single-molecule TIRF microscopy; sfGFP- and mScarlet (I)-tagged KIF13BK414A co-expressed and purified together (molar ratio ~1:5 mScarlet (I): sfGFP), seen on immobilised tyrosinated and CPA-treated detyrosinated microtubules; 2 mM ATP or 2 mM ADP.
Data set [4] concerns the molecule itself. The data set is described as follows: mass photometry; 5, 25 and 100 nM protein in HP buffer (90 mM HEPES, 10 mM PIPES, 50 mM K-acetate, 2 mM Mg-acetate, 1 mM EGTA, 10% glycerol, pH 7.0), room temperature; result told over the whole range; monomer to dimer.

Numbering of substitutions follows the chain as printed. Names may count otherwise.

B1: human KIF13B tail-truncated (a.a. 1–679), C-terminal sfGFP-StrepII (domain or fragment, UniProt Q9NQT8 1-679, looked up)
chain: MGDSKVKVAVRIRPMNRRETDLHTKCVVDVDANKVILNPVNTNLSKGDARGQPKVFAYDHCFWSMDESVKEKYAGQDIVFKCLGENILQNAFDGYNACIFAYGQTGSGKSYTMMGTADQPGLIPRLCSGLFERTQKEENEEQSFKVEVSYMEIYNEKVRDLLDPKGSRQTLKVREHSVLGPYVDGLSKLAVTSYKDIESLMSEGNKSRTVAATNMNEESSRSHAVFKITLTHTLYDVKSGTSGEKVGKLSLVDLAGSERATKTGAAGDRLKEGSNINKSLTTLGLVISALADQSAGKNKNKFVPYRDSVLTWLLKDSLGGNSKTAMVATVSPAADNYDETLSTLRYADRAKHIVNHAVVNEDPNARIIRDLREEVEKLREQLTKAEAMKSPELKDRLEESEKLIQEMTVTWEEKLRKTEEIAQERQKQLESLGISLQSSGIKVGDDKCFLVNLNADPALNELLVYYLKEHTLIGSANSQDIQLCGMGILPEHCIIDITSEGQVMLTPQKNTRTFVNGSSVSSPIQLHHGDRILWGNNHFFRLNLPKKKKKAEREDEDQDPSMKNENSSEQLDVDGDSSSEVSSEVNFNYEYAQMEVTMKALGSNDPMQSILNSLEQQHEEEKRSALERQRLMYEHELEQLRRRLSPEKQNCRSMDRFSFHSPSAQQRLRQWAEEREATL
notes: KIF13B, human, a.a; 1–679; truncated after the predicted second coiled-coil, within the MBS domain; also called KIF13B^Δtail; KIF13^Δtail; source: Sf9 insect cells (baculovirus), purified (Strep-Tactin XT, gel filtration); not shown: sfGFP, C-terminal, kept
For the molecule B1, the binding result in data set [1] and in data set [2] was “binds” throughout.

B2: human KIF13B CAP-Gly fragment (a.a. 1685–1826), N-terminal sfGFP-StrepII (domain or fragment)
chain: QALASDSEEADEVPEWLREGEFVTVGAHKTGVVRYVGPADFQEGTWVGVELDLPSGKNDGSIGGKQYFRCNPGYGLLVRPSRVRRATGPVRRRSTGLRLGAPEARRSATLSGSATNLASLTAALAKADRSHKNPENRKSWAS
notes: KIF13B, human, a.a; 1685–1826: CAP-Gly domain and an ~80 residue unstructured C-terminal region; The sfGFP-StrepII tag is joined to the N-terminus of the fragment through a 3xGGGGS linker (pET28a); the methods hold here; also called KIF13B^CG; KIF13^CG; source: E. coli BL21-CodonPlus (DE3)-RIPL, purified (Strep-Tactin XT, HiTrap Q, Superdex 200); not shown: sfGFP, N-terminal, kept
As to B2, the binding result in data set [2] was “binds”.

B3: KIF13B K414A, full-length human KIF13B with the point mutation K414A, C-terminal sfGFP-StrepII (natural protein, UniProt Q9NQT8 1-1826, looked up)
chain: MGDSKVKVAVRIRPMNRRETDLHTKCVVDVDANKVILNPVNTNLSKGDARGQPKVFAYDHCFWSMDESVKEKYAGQDIVFKCLGENILQNAFDGYNACIFAYGQTGSGKSYTMMGTADQPGLIPRLCSGLFERTQKEENEEQSFKVEVSYMEIYNEKVRDLLDPKGSRQTLKVREHSVLGPYVDGLSKLAVTSYKDIESLMSEGNKSRTVAATNMNEESSRSHAVFKITLTHTLYDVKSGTSGEKVGKLSLVDLAGSERATKTGAAGDRLKEGSNINKSLTTLGLVISALADQSAGKNKNKFVPYRDSVLTWLLKDSLGGNSKTAMVATVSPAADNYDETLSTLRYADRAKHIVNHAVVNEDPNARIIRDLREEVEKLREQLTKAEAMKSPELKDRLEESEKLIQEMTVTWEEALRKTEEIAQERQKQLESLGISLQSSGIKVGDDKCFLVNLNADPALNELLVYYLKEHTLIGSANSQDIQLCGMGILPEHCIIDITSEGQVMLTPQKNTRTFVNGSSVSSPIQLHHGDRILWGNNHFFRLNLPKKKKKAEREDEDQDPSMKNENSSEQLDVDGDSSSEVSSEVNFNYEYAQMEVTMKALGSNDPMQSILNSLEQQHEEEKRSALERQRLMYEHELEQLRRRLSPEKQNCRSMDRFSFHSPSAQQRLRQWAEEREATLNNSLMRLREQIVKANLLVREANYIAEELDKRTEYKVTLQIPASSLDANRKRGSLLSEPAIQVRRKGKGKQIWSLEKLDNRLLDMRDLYQEWKECEEDNPVIRSYFKRADPFYDEQENHSLIGVANVFLESLFYDVKLQYAVPIINQKGEVAGRLHVEVMRLSGDVGERIAGGDEVAEVSFEKETQENKLVCMVKILQATGLPQHLSHFVFCKYSFWDQQEPVIVAPEVDTSSSSVSKEPHCMVVFDHCNEFSVNITEDFIEHLSEGALAIEVYGHKINDPRKNPALWDLGIIQAKTRSLRDRWSEVTRKLEFWVQILEQNENGEYCPVEVISAKDVPTGGIFQLRQGQSRRVQVEVKSVQESGTLPLMEECILSVGIGCVKVRPLRAPRTHETFHEEEEDMDSYQDRDLERLRRKWLNALTKRQEYLDQQLQKLVSKRDKTEDDADREAQLLEMRLTLTEERNAVMVPSAGSGIPGAPAEWTPVPGMETHIPVIFLDLNADDFSSQDNLDDPEAGGWDATLTGEEEEEFFELQIVKQHDGEVKAEASWDSAVHGCPQLSRGTPVDERLFLIVRVTVQLSHPADMQLVLRKRICVNVHGRQGFAQSLLKKMSHRSSIPGCGVTFEIVSNIPEDAQGVEEREALARMAANVENPASADSEAYIEKYLRSVLAVENLLTLDRLRQEVAVKEQLTGKGKLSRRSISSPNVNRLSGSRQDLIPSYSLGSNKGRWESQQDVSQTTVSRGIAPAPALSVSPQNNHSPDPGLSNLAASYLNPVKSFVPQMPKLLKSLFPVRDEKRGKRPSPLAHQPVPRIMVQSASPDIRVTRMEEAQPEMGPDVLVQTMGAPALKICDKPAKVPSPPPVIAVTAVTPAPEAQDGPPSPLSEASSGYFSHSVSTATLSDALGPGLDAAAPPGSMPTAPEAEPEAPISHPPPPTAVPAEEPPGPQQLVSPGRERPDLEAPAPGSPFRVRRVRASELRSFSRMLAGDPGCSPGAEGNAPAPGAGGQALASDSEEADEVPEWLREGEFVTVGAHKTGVVRYVGPADFQEGTWVGVELDLPSGKNDGSIGGKQYFRCNPGYGLLVRPSRVRRATGPVRRRSTGLRLGAPEARRSATLSGSATNLASLTAALAKADRSHKNPENRKSWAS
notes: kinesin KIF13B, human, full length, point mutant K414A; molar ratio about 1:5 (mScarlet (I): sfGFP); also called KIF13BK414A-sfGFP; HsKIF13BK414A-sfGFP-StrepII; source: Sf9, purified (Strep-Tactin XT, gel filtration); for the two-colour assay Sf9 co-infected with the sfGFP-StrepII and the mScarlet-StrepII viruses; not shown: sfGFP, C-terminal, kept
As to B3, the binding result in data set [3] was “binds”.

B4: full-length human KIF13B (wild type), C-terminal sfGFP-StrepII (natural protein)
chain: B3 chain with A414K
notes: KIF13B, human, full-length cDNA from Transomics (BC172411); Predominantly monomeric in solution, minor dimer fraction (mass photometry); also called WT KIF13B; full-length KIF13B; source: Sf9 insect cells (baculovirus), purified (Strep-Tactin XT, gel filtration); not shown: sfGFP, C-terminal, kept
For the molecule B4, the binding result in data set [2] is “binds”.

B5: full-length human KIF13B V178Q, C-terminal sfGFP-StrepII (natural protein, UniProt Q9NQT8 1-1826, looked up)
chain: B3 chain with V178Q, A414K
notes: source: Sf9 insect cells (baculovirus), purified (Strep-Tactin XT, gel filtration); not shown: sfGFP, C-terminal, kept
Consider B5, for which, in data set [4], the binding result is reported as “binds”.

B6: full-length human KIF13B K414A, C-terminal sfGFP-StrepII (natural protein, UniProt Q9NQT8 1-1826, looked up)
chain: B3 chain
notes: also called KI13B^K414A; source: Sf9 insect cells (baculovirus), purified (Strep-Tactin XT, gel filtration); not shown: sfGFP, C-terminal, kept
Regarding B6, in data set [4], the binding result is given as “binds”.
